B1: HDV Ribozyme (parent)
chain: GGCCGGCAUGGUCCCAGCCUCCUCGCUGGCGCCGGCUGGGCAACAUUCCGAGGGGACCGUCCCCUCGGUAAUGGCGAAUGGGACCCA

The variants in this data set derive from B1. As to the kind of experiment: self-cleavage, relative activity (ratio to wild type); higher = more cleavage; co-transcriptional.
G73U U79G: the self-cleavage came to 0.374.

For G38C C44A, the self-cleavage amounted to 0.0354. On to C57G U60C, for which the self-cleavage stood at 1.07. Take C33U G54U: the self-cleavage turned out to be 0.901. As for A16G C18G, the self-cleavage was 0.111. For G39U G68A, the self-cleavage turned out to be 0.841.

Turning to U20G A51U, the self-cleavage turned out to be 0.332.

For G10C A83G, the self-cleavage came to 0.578. Regarding G59A A87U, the self-cleavage is 0.974.

Regarding U12C C62A, the self-cleavage turned out to be 0.57. Turning to U12C G28U, the self-cleavage was found to be 0.0378. Consider G28U G52U, for which the self-cleavage turned out to be 0.211. With G39U G82U, the self-cleavage amounted to 0.155.

Take U23A G35U: the self-cleavage came to 0.431. C48U C85A: the self-cleavage came out at 1.03. On to U12G C85A, for which the self-cleavage was determined as 0.712. For C3A C41A, the self-cleavage is 0.25.

Regarding C15A C86A, the self-cleavage came to 0.665. Take G28A A43C: the self-cleavage amounted to 0.108. Turning to G34A C58U, the self-cleavage is 0.122. As for C4G C64U, the self-cleavage is 0.214. Turning to C3U U23A, the self-cleavage stood at 0.9. With C3U U23G, the self-cleavage is 0.743.

In the case of U37G C62A, the self-cleavage came out at 0.0594. For C7G G35C, the self-cleavage was determined as 0.237. The value for A71G G74A was 0.4; that for C57U A70U was 1.05. As for C30G G54C, the self-cleavage worked out at 0.095. As to U27A G82C, the self-cleavage came to 0.322. Consider C32A A71C, for which the self-cleavage was 0. For the variant A51G G52A, the self-cleavage was 1.

On to G38A G81A, for which the self-cleavage came out at 0.227. For U46A A87C the value was 0.744; for A8G G54U, 0.906.

Regarding G31A C32U, the self-cleavage is 0.315. For the variant C32A U60C, the self-cleavage came out at 0.213. For G29C U79C, the self-cleavage is 0.138.

On to G29A U37G, for which the self-cleavage was found to be 0.0723.

G11U C44G: the self-cleavage is 0.0723. As to G5C U65A, the self-cleavage amounted to 0.246. On to U23A G54A, for which the self-cleavage stood at 1.01. Consider U69C G80A, for which the self-cleavage worked out at 0.305.

For G29U U72G, the self-cleavage amounted to 0. With U20G C66A, the self-cleavage came out at 0.249.

For the variant C58U C64G, the self-cleavage turned out to be 0.895.

As for A8G C41G, the self-cleavage was 0.578. With C32G C58U, the self-cleavage turned out to be 0.0234.

U60G U72A: the self-cleavage was found to be 0.458. For C75A C85G the value was 0.116; for U9G G34U, 0.237; for C4U A51U, 0.85.

G1C C75A: the self-cleavage was found to be 0. As for C3G G5U, the self-cleavage came out at 0.119. The value for U9A U12C was 0.289. With C41A C86U, the self-cleavage was found to be 0.904.

With C13A G74C, the self-cleavage was 0.0346.

On to G29U C86U, for which the self-cleavage was found to be 0.0959. The value for A43C G53C was 0.63; that for A45G G52A was 0.875; that for C22A C86U was 0.293. For G31C G53C the value was 0.332.

For U37C U47C, the self-cleavage is 0.791. For the variant U37A A51G, the self-cleavage turned out to be 0.302. As to C4G C30G, the self-cleavage came out at 0.

For the variant C19G G82C, the self-cleavage is 0.0594.

As for G1A G81C, the self-cleavage turned out to be 0.269. Take C13A G76C: the self-cleavage is 0.386.

Take G2U C64U: the self-cleavage worked out at 0.111. The value for C36U G50U was 0.841; that for G81C was 0.268; that for C41A C57U was 0.909.

Take C33A C58G: the self-cleavage is 0.332. With G39C G53A, the self-cleavage stood at 0.308.

On to C41U G68C, for which the self-cleavage was 0.636. As to C64U U69A, the self-cleavage was 1.02. Consider C41U A71C, for which the self-cleavage came to 0.644. The value for C30G G40A was 0.0923. On to G52C A70G, for which the self-cleavage stood at 0.702. In the case of G25A A70C, the self-cleavage stood at 0.138.

For C44A A70U, the self-cleavage is 0.571. The value for A16G G81A was 0.604; that for C48A C66A was 0.92; that for C48A A51C was 1.03.

In the case of G35U A51C, the self-cleavage was 0.332. For the variant G10A U65A, the self-cleavage turned out to be 0.831.

G10U U37C: the self-cleavage worked out at 0.587. The value for C14U G81A was 1.32; that for C13U C64U was 0.554; that for G39C A87U was 0.229. The value for C19U C85A was 0.0378; that for C18A C33G was 0; that for U12C C66G was 0.356. Take U23G G67C: the self-cleavage was 0.59.

With G10U G74U, the self-cleavage was 0.0594. For C24A U69G the value was 0.623; for G10U A70C, 0.678. As for G10U A70U, the self-cleavage was 0.602. For G28A A70C, the self-cleavage amounted to 0.0554. As for C41U U65G, the self-cleavage was determined as 0.976. Take C4A A42G: the self-cleavage turned out to be 0.0875. For the variant C21A G34C, the self-cleavage worked out at 0. G11U G81C: the self-cleavage is 0.126.

Consider U27G G68C, for which the self-cleavage amounted to 0.87. As to G28A C86U, the self-cleavage is 0.0369.

Regarding G2A C62U, the self-cleavage was 0.0886.

As to G59A C64U, the self-cleavage was found to be 0.903. For C4G C32G the value was 0; for C24A A56C, 0.966. For A16C C63A the value was 0.942. On to G2A U27G, for which the self-cleavage was 0. Consider C14A A71C, for which the self-cleavage came to 0.166. As to A8C A51U, the self-cleavage stood at 0.831.

As for U27A C36G, the self-cleavage is 0.298.

With A16U A77G, the self-cleavage is 0.739. As for U46A C58A, the self-cleavage stood at 0.57. Consider G28U U60G, for which the self-cleavage was found to be 0.123.

Regarding C30U C64U, the self-cleavage turned out to be 0.806. In the case of C66U A83C, the self-cleavage was determined as 0.298. U65C C86U: the self-cleavage turned out to be 0.516.

On to U46C U69A, for which the self-cleavage amounted to 0.918. For the variant C4A C13G, the self-cleavage was determined as 0.0692. For the variant G52A G74U, the self-cleavage is 0.561. U46A U69G: the self-cleavage is 0.793. In the case of A42C G53C, the self-cleavage was found to be 0.297. For G10U C32A the value was 0.1; for G74C A87U, 0.304. On to A8G C85A, for which the self-cleavage is 0.68. Take C32A C63U: the self-cleavage worked out at 0.332. For the variant U37G A56C, the self-cleavage is 0.

U23C G76U: the self-cleavage amounted to 1.14. The value for G28C A77G was 0.119; that for C19G G38A was 0.0511; that for C15G G34C was 0. For G1C C32G the value was 0. Turning to C63G U79G, the self-cleavage is 0.692.

With A8U G76A, the self-cleavage was 0.95.

For the variant A43G G73U, the self-cleavage is 0.0755.

C24U C36G: the self-cleavage worked out at 0.141. Regarding A43U U65G, the self-cleavage was 0.302.

Regarding G67C C86A, the self-cleavage was found to be 0.972.

As to G52U A70U, the self-cleavage was determined as 0.831. For C36U G81C, the self-cleavage worked out at 0.12. Consider A16C C32U, for which the self-cleavage is 0.332.

G28A A45C: the self-cleavage turned out to be 0.0744. Take U47A G82A: the self-cleavage is 0.298.

As to C4A G35U, the self-cleavage worked out at 0.0369.

On to C22G A51U, for which the self-cleavage stood at 0.0339. The value for C7A G67C was 0.302; that for C3G U20C was 0.0489; that for C57U C58U was 1.3. For C26G C49A the value was 0.95; for C4U U23C, 0.571; for U12G C63U, 0.755. Regarding C36G G68A, the self-cleavage was 0.233. For the variant C15A G59U, the self-cleavage was found to be 0.623. Consider C19U G25C, for which the self-cleavage was determined as 0.0489. On to U27G A77G, for which the self-cleavage came out at 0.723.

Turning to G55U A83C, the self-cleavage was found to be 0.554. As to A42G G59U, the self-cleavage was found to be 0.608. For G6U G52U the value was 0.397; for C33U G82A, 0.302; for C66U U79A, 0.869.

On to A8G G28U, for which the self-cleavage worked out at 0.185. With G11U A56U, the self-cleavage amounted to 0.391. For G17U C21A, the self-cleavage came out at 0.0339. As to G25A G39A, the self-cleavage is 0.172.

Consider C63A C64A, for which the self-cleavage was determined as 0.665.

The values are drawn from the RNAGym collection of RNA variant scans (doi:10.7554/elife.80360).
